This is an account of results in patent US5453362, “Eukaryotic transcription protein; host cell factor” (Tularik Inc.).

The target of data set [1] is GST-VP16 with insect extract, no Oct-1 POU (Herpes simplex virus, UniProt P06492 P06492:5-411). The data set is described as follows: EMSA; no specific complex with SL2 or Sf9 extract without Oct-1 POU. Conditions: tags: GST; label: 32P end.
Data set [2] has as its target VP16-induced complex: Oct-1 POU domain + GST-VP16 + partially purified human HCF (Homo sapiens / Herpes simplex virus, UniProt P14859;P06492;P51610 P14859:280-438,P06492:5-411,P51610:2-2035). The data set is described as follows: EMSA; 50 mM KCl, pH 7.9, 1 mM EDTA, 30 C; complex disrupted by anti-HCF sera (FIG. 4, WGA fraction). Conditions: tags: GST on VP16; Oct-1 POU recombinant from E. coli, GST removed by thrombin; label: 32P end. For orientation: Mobility shift assays separate free from complexed probe on a gel.

Sequence of VP16-induced complex: Oct-1 POU domain + GST-VP16 + partially purified human HCF (P14859 280-438, chain 1 of 3): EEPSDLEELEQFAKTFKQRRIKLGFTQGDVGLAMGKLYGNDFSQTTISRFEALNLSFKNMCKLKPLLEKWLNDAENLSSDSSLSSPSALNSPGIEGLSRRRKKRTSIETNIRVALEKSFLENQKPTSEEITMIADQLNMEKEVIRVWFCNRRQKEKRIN
Sequence of VP16-induced complex: Oct-1 POU domain + GST-VP16 + partially purified human HCF (P06492 5-411, chain 2 of 3): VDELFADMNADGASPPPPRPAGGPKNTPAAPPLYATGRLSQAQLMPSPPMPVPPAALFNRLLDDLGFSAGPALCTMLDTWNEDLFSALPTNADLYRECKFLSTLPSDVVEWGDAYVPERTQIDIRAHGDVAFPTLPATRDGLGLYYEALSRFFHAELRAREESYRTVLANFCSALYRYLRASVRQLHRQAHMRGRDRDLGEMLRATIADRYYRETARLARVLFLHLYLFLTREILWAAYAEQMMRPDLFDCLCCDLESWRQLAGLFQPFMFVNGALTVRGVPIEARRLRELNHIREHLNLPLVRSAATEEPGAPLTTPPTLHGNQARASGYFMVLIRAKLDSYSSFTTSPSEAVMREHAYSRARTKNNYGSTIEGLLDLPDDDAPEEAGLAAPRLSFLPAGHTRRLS
Sequence of VP16-induced complex: Oct-1 POU domain + GST-VP16 + partially purified human HCF (P51610 2-2035, chain 3 of 3): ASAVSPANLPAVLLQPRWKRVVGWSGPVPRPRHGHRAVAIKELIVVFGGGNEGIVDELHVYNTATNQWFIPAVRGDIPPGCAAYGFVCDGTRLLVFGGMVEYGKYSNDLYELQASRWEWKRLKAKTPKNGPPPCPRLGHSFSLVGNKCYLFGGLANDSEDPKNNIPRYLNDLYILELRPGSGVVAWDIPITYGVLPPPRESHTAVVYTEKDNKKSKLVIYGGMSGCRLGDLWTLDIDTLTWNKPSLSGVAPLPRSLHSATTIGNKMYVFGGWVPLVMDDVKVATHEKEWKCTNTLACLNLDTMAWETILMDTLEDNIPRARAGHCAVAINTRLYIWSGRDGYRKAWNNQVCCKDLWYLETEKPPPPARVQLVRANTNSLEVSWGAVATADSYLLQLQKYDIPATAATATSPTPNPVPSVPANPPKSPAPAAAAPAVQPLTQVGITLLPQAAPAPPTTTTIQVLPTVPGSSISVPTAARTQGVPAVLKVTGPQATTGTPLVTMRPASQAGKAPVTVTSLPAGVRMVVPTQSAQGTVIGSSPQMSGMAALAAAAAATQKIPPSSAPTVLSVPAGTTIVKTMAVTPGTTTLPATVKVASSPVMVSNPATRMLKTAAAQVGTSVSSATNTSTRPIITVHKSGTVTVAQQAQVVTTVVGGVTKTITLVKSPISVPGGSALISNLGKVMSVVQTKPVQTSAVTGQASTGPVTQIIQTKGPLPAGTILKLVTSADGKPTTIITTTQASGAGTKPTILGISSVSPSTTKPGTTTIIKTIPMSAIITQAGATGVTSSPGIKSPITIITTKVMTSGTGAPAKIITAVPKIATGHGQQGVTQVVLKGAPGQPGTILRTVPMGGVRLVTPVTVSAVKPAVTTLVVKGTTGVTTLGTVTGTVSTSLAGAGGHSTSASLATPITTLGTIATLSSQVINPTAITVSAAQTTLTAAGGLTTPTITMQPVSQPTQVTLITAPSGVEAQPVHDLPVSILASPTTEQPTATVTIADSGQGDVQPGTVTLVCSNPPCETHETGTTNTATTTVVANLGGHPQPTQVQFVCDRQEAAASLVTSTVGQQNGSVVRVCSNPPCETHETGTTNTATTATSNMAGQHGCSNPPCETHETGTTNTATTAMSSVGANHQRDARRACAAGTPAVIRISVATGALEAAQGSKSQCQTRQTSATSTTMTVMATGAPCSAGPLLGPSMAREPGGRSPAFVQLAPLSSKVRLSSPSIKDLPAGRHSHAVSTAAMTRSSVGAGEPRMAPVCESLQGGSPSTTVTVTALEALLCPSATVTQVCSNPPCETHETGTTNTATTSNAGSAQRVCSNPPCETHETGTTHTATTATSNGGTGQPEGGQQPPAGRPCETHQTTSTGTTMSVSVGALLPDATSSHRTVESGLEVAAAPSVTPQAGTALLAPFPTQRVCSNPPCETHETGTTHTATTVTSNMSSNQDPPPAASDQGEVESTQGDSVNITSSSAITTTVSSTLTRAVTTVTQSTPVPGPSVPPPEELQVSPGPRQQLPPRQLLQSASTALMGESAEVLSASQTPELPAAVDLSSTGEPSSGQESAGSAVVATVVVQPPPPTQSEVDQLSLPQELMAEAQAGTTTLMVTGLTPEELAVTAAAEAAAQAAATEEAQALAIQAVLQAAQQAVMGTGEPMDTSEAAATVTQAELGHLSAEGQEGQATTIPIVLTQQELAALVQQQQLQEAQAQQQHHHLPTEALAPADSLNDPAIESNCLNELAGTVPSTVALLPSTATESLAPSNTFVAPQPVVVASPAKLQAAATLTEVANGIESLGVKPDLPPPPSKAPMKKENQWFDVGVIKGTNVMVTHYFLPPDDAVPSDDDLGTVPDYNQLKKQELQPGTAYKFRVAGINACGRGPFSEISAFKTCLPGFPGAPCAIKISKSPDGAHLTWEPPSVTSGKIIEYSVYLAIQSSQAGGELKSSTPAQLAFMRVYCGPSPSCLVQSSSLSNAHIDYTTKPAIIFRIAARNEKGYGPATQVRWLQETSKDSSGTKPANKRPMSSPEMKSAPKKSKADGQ
Sequence of GST-VP16 with insect extract, no Oct-1 POU (P06492 5-411, one chain of several): as the sequence (P06492 5-411, chain 2 of 3) above

B1: (Octa+)… ICP0 IE element (dsDNA)
DNA 1: ATGCTAATGATAT
DNA 2: ATATCATTAGCAT
As to B1, the values for the binding result in data set [1] and in data set [2] were “no binding” and “binds”, respectively.
